We go through one molecule from US20100113355A1.

Assay [1] has as its target T1, Biotin-… antigenic peptide (epitope sequence from candidal Hsp90) (Candida ("candidal Hsp90")). Description: ELISA, biotinylated hsp90 peptide on streptavidin plate, anti-His-HRP detection; % activity against Mycograb reference standard; site 2; sample in 0.5 M urea, 0.2 M L-arginine pH 9.5.
The target of assay [2] is T1, Biotin-… antigenic peptide (epitope …). Description: ELISA, biotinylated hsp90 peptide on streptavidin plate, anti-His-HRP detection; % activity against Mycograb reference standard; site 1; sample in 50 mM Tris, pH 9.0.
Assay [3] shares this target. Description: ELISA, biotinylated hsp90 peptide on streptavidin plate, anti-His-HRP detection; % activity against Mycograb reference standard; site 1; sample in 0.5 M urea, 0.2 M L-arginine pH 9.5. Background: ELISA stands for enzyme-linked immunosorbent assay.
Assay [4] has the same target. Description: ELISA, biotinylated hsp90 peptide on streptavidin plate, anti-His-HRP detection; % activity against Mycograb reference standard; site 1; sample in 50 mM Tris, 3 mM DTT, pH 9.0.
For assay [5] the target is unchanged. Description: ELISA, biotinylated hsp90 peptide on streptavidin plate, anti-His-HRP detection; % activity against Mycograb reference standard; site 2; sample in 50 mM Tris, 3 mM DTT, pH 9.0.
For assay [6] the target is unchanged. Description: ELISA, biotinylated hsp90 peptide on streptavidin plate, anti-His-HRP detection; % activity against Mycograb reference standard; site 2; sample in 50 mM Tris, 1 M sucrose, ~0.2% Tween20, 3 mM DTT, pH 3.0.
Assay [7] has the same target. Description: ELISA, biotinylated hsp90 peptide on streptavidin plate, anti-His-HRP detection; % activity against Mycograb reference standard; site 1; sample in 50 mM Tris, 1 M sucrose, ~0.2% Tween20, 3 mM DTT, pH 3.0.
For assay [8] the target is unchanged. Description: ELISA, biotinylated hsp90 peptide on streptavidin plate, anti-His-HRP detection; % activity against Mycograb reference standard; site 2; sample in 50 mM Tris, pH 9.0.

B1: MYC123 ("wild type" Mycograb) scFv peptide (scFv)
scFv: MAEVQLVESGAEVKKPGESLRISCKGSGCIISSYWISWVRQMPGKGLEWMGKIDPGDSYINYSPSFQGHVTISADKSINTAYLQWNSLKASDTAMYYCARGGRDFGDSFDYWGQGTLVTVSSGGGGSGGGGSGGGGSDVVMTQSPSFLSAFVGDRITITCRASSGISRYLAWYQQAPGKAPKLLIYAASTLQTGVPSRFSGSGSGTEFTLTINSLQPEDFATYYCQHLNSYPLTFGGGTKVDIKRAAALEHHHHHH
For B1, the ELISA Site 2 [%] (activity compared with the reference) in assay [1] stood at 78%; in assay [5], 131%; in assay [6], 130%; in assay [8], 95%. Further, the ELISA Site 1 [%] (activity compared with the reference) in assay [2] was 71%; in assay [3] it was 90%; in assay [4], 85%; in assay [7] it was 135%.
